The values below come from PMC3485041, “In Vitro Site Selection of a Consensus Binding Site for the Drosophila melanogaster Tbx20 Homolog Midline”.

This series concerns the target T1, Midline T-box domain (MidTbx) (Drosophila melanogaster, UniProt Q8SYY8 171-393).
T1 sequence: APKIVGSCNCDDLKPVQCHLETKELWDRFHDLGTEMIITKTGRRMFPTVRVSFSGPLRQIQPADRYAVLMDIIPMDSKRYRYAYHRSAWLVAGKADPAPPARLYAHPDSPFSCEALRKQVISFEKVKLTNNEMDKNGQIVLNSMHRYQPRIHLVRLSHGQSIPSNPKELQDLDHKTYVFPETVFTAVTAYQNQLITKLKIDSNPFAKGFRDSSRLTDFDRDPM
The experiment in a line: EMSA; 20 mM HEPES pH 7.9, 100 mM KCl, 0.2 mM EDTA, 0.2 mM EGTA, 20% glycerol, 0.1% NP40, 0.5 mM DTT, 10 mg/ml BSA, 8 ng/ul poly(dI-dC); room temperature 1 h; 15 fmol. Particulars: protein: recombinant, tags: C-terminal 6xHis (pET-21a), blunt.

B1: mid.Najand Region 2 (dsDNA)
DNA 1: CAAGGTGTCAAGGAA
DNA 2: TTCCTTGACACCTTG
As for B1, the binding result (label: 5' biotin) is reported as “binds”.

B2: clone 67 (dsDNA)
DNA 1: CAGGTCAGTTCAGCGGATCCTGTCGCTACGGAGGTGATTACACGCGAAATCGAGGCGAATTCAGTGCAACTGCAGC
DNA 2: GCTGCAGTTGCACTGAATTCGCCTCGATTTCGCGTGTAATCACCTCCGTAGCGACAGGATCCGCTGAACTGACCTG
Turning to B2, the binding result (label: 5' biotin (primer F)) was “binds”.

B3: clone 72 (dsDNA)
DNA 1: GCTGCAGTTGCACTGAATTCGCCTCAGCGCCCAGTTGGTGTTAAGCCAGTCCGACAGGATCCGCTGAACTGACCTG
DNA 2: CAGGTCAGTTCAGCGGATCCTGTCGGACTGGCTTAACACCAACTGGGCGCTGAGGCGAATTCAGTGCAACTGCAGC
Take B3: the binding result (label: 5' biotin (primer F)) is “binds”.

B4: clone 4 (dsDNA)
DNA 1: GCTGCAGTTGCACTGAATTCGCCTCCGTGCGTACGTGTCAATTCGTCAAGGCCGACAGGATCCGCTGAACTGACCTG
DNA 2: CAGGTCAGTTCAGCGGATCCTGTCGGCCTTGACGAATTGACACGTACGCACGGAGGCGAATTCAGTGCAACTGCAGC
As to B4, the binding result (label: 5' biotin (primer F)) is recorded as “binds”.

B5: clone 75 (dsDNA)
DNA 1: CAGGTCAGATCAGCGGATCCTGTCGCGACGCCTTGGGGGTGTCACGGCGCGGCAGGTCAGATCAGCGGATCCTGTCG
DNA 2: CGACAGGATCCGCTGATCTGACCTGCCGCGCCGTGACACCCCCAAGGCGTCGCGACAGGATCCGCTGATCTGACCTG
Take B5: the binding result (label: 5' biotin (primer F)) is “binds”.

B6: Tbx20.MacIndoe (dsDNA)
DNA 1: GGAGGTGTGAGGCGA
DNA 2: TCGCCTCACACCTCC
For B6, the binding result (label: 5' biotin) is recorded as “binds”.

B7: mid.Liu (dsDNA)
DNA 1: GGAAGTAGGTCAAG
DNA 2: CTTGACCTACTTCC
As to B7, the binding result (label: 5' biotin) was “no binding”.

B8: clone 42 (dsDNA)
DNA 1: CAGGTCAGTTCAGCGGATCCTGTCGGGTGTTGATGGTGTTAACGCGCGAGGGAGGCGAATTCAGTGCAACTGCAGC
DNA 2: GCTGCAGTTGCACTGAATTCGCCTCCCTCGCGCGTTAACACCATCAACACCCGACAGGATCCGCTGAACTGACCTG
On to B8, for which the binding result (label: 5' biotin (primer F)) is given as “binds”.

B9: clone 57 (dsDNA)
DNA 1: CAGGTCAGTTCAGCGGATCCTGTCGACATGGGAGGCTGTTACGGCGCGAACGAGGCGAATTCAGTGCAACTGCAGC
DNA 2: GCTGCAGTTGCACTGAATTCGCCTCGTTCGCGCCGTAACAGCCTCCCATGTCGACAGGATCCGCTGAACTGACCTG
Regarding B9, the binding result (label: 5' biotin (primer F)) is recorded as “binds”.

B10: T-site (Brachyury palindrome) (dsDNA)
DNA 1: AATTTCACACCTAGGTGTGAAATT
DNA 2: AATTTCACACCTAGGTGTGAAATT
With B10, the binding result (label: 5' biotin, self-complementary, 2 copies) was “binds”.

B11: mid.Najand (dsDNA)
DNA 1: CAAGGTGTCAAGGCG
DNA 2: CGCCTTGACACCTTG
In the case of B11, the binding result (label: 5' biotin) is “binds”.

B12: clone 43 (dsDNA)
DNA 1: CAGGTCAGTTCAGCGGATCCTGTCGGGGGGCTGGTGCGAAAGTGTGTAGTGGCAGGTCAGTTCAGCGGATCCTGTCG
DNA 2: CGACAGGATCCGCTGAACTGACCTGCCACTACACACTTTCGCACCAGCCCCCCGACAGGATCCGCTGAACTGACCTG
On to B12, for which the binding result (label: 5' biotin (primer F)) is recorded as “binds”.

B13: clone 74 (dsDNA)
DNA 1: CAGGTCAGTTCAGCGGATCCTGTCGCCTTAAGGTGCGGGCAGACAGGTGTGGAGGCGAATTCAGTGCAACTGCAGC
DNA 2: GCTGCAGTTGCACTGAATTCGCCTCCACACCTGTCTGCCCGCACCTTAAGGCGACAGGATCCGCTGAACTGACCTG
On to B13, for which the binding result (label: 5' biotin (primer F)) is given as “binds”.

B14: clone 50 (dsDNA)
DNA 1: CAGGTCAGTTCAGCGGATCCTGTCGAGGTGTGGCACTGTGAAGTTCGCGAGGAGGCGAATTCAGTGCAACTGCAGC
DNA 2: GCTGCAGTTGCACTGAATTCGCCTCCTCGCGAACTTCACAGTGCCACACCTCGACAGGATCCGCTGAACTGACCTG
Turning to B14, the binding result (label: 5' biotin (primer F)) is reported as “binds”.

B15: mid.Najand Region 1 (dsDNA)
DNA 1: CACCCCCCCAAGGCG
DNA 2: CGCCTTGGGGGGGTG
On to B15, for which the binding result (label: 5' biotin) is “no binding”.

B16: clone 2 (dsDNA)
DNA 1: GCTGCAGTTGCACTGAATTCGCCTCACCATCACACCAGCGAAGTGACAGTTCGACAGGATCCGCTGAACTGACCTG
DNA 2: CAGGTCAGTTCAGCGGATCCTGTCGAACTGTCACTTCGCTGGTGTGATGGTGAGGCGAATTCAGTGCAACTGCAGC
For B16, the binding result (label: 5' biotin (primer F)) is “binds”.
